This note sets out measurements from patent US20170260274A1 (LUTANA, published 2017).

Assay [1] concerns the target T1, epidermal growth factor receptor (EGFR) (human, UniProt P00533 25-1210).
T1 construct: whole, on cells; Endogenous EGFR on human tumor cell lines; also called target antigen
Nature of the assay: flow cytometry, equilibrium binding on EGFR-expressing A431 cells (apparent KD). A general note: Flow cytometry measures light scatter and fluorescence of single cells or particles in a stream.
Experimental: Detection of bound antibody or immunoRNase was performed using murine anti-c-myc monoclonal antibody clone 9E10 (Roche, Penzberg, Germany) and goat-anti-mouse fluorescein isothiocyanate (FITC) conjugate (Jackson ImmunoResearch, Suffolk, UK). Fluorescence of stained cells was measured on a FACS Canto II flow cytometer (Becton Dickinson) using the FACS Diva Software (Becton Dickinson). Background fluorescence was substracted from measured median fluorescence and relative affinities were calculated by nonlinear regression using GraphPad Prism 5.0 (GraphPad Software, La Jolla, Calif., USA).

The target of assay [2] is T1, epidermal growth factor receptor (EGFR). Nature of the assay: cell-based or functional assay.

B1: humanized anti-epidermal growth factor receptor (EGFR) scFv IZI08 (scFv)
scFv: EVQLVESGGGLVQPGGSLRLSCAASGFSLTNYGVHWVRQAPGKGLEWLGVIWSGGNTDYNTPFTSRFTISRDNSKNTLYLQMNSLRAEDTAVYYCARALTYYDYEFAYWGQGTTVTVSSGGGGSGGGGSGGGGSDIQLTQSPSFLSASVGDRVTITCRASQSIGTNIHWYQQKPGKAPKLLIKYASESISGVPSRFSGSGSGTEFTLTISSLQPEDFATYYCQQNNNWPTTFGAGTKLEIKR
notes: Expressed in E. coli periplasm, monomer purified by SEC; also called anti-EGFR scFv; anti-EGFR scFv IZI08; not shown: C-terminal c-myc tag; C-terminal hexahistidine tag
With B1, the Kd in assay [1] stood at 9.6 nM. Besides, in assay [2], the “IC50 (nM), cell viability, A431” value was greater than 3620 nM; the “IC50 (nM), cell viability, HNO97” value is greater than 3620 nM; the “IC50 (nM), cell viability, HNO211” value is greater than 3620 nM; the “IC50 (nM), cell viability, HNO410” value is greater than 3620 nM.

B2: Ranpirnase-GS-scFv (other)
chain: QDWLTFQKKHITNTRDVDCDNIMSTNLFHCKDKNTFIYSRPEPVKAICKGIIASKNVLTTSEFYLSDCNVTSRPCKYKLKKSTNKFCVTCENQAPVHFVGVGSCGGGGSGGGGSGGGGSEVQLVESGGGLVQPGGSLRLSCAASGFSLTNYGVHWVRQAPGKGLEWLGVIWSGGNTDYNTPFTSRFTISRDNSKNTLYLQMNSLRAEDTAVYYCARALTYYDYEFAYWGQGTTVTVSSGGGGSGGGGSGGGGSDIQLTQSPSFLSASVGDRVTITCRASQSIGTNIHWYQQKPGKAPKLLIKYASESISGVPSRFSGSGSGTEFTLTISSLQPEDFATYYCQQNNNWPTTFGAGTKLEIKR
modifications: Q* at position 1 of SEQ ID NO:4 stands for a pyroglutamate (as printed for Ranpirnase)
notes: also called Ranpimase-GS-scFv; immunoRNase Ranpirnase-GS-scFv; not shown: C-terminal c-myc tag; C-terminal hexahistidine tag
For B2, the Kd in assay [1] stood at 14.7 nM. In assay [2], the “IC50 (nM), cell viability, A431” value is greater than 3620 nM; the “IC50 (nM), cell viability, HNO97” value amounted to 1260 nM; the “IC50 (nM), cell viability, HNO211” value came out at 1420 nM; the “IC50 (nM), cell viability, HNO410” value came to 2520 nM.
